Data reported in publication doi:10.1101/2023.04.17.536592 (bioRxiv, 2023).

T1: T. brucei histone H2A (Trypanosoma brucei brucei, UniProt Q57YA3 2-134)
T1 construct: also called Tb H2A
T1 sequence: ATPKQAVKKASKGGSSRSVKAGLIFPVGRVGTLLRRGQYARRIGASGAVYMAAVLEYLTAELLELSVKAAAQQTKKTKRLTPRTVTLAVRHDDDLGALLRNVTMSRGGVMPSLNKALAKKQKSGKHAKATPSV

B1: T. brucei histone H2B (natural protein, Trypanosoma brucei brucei)
chain: ATPKSTPAKTRKEAKKTRRQRKRTWNVYVSRSLRSINSQMSMTSRTMKIVNSFVNDLFERIAAEAATIVRVNRKRTLGARELQTAVRLVLPADLAKHAMAEGTKAVSHASS
notes: also called Tb H2B
B2: T. brucei histone H4 (natural protein)
chain: not shown
notes: also called Tb H4

Legend:
T. brucei histone H2A = target: T1, T. brucei histone H2A; assay: cryo-EM structure; conditions: both partners purified
T. brucei histone H2B = target: B1; assay: cryo-EM structure; conditions: both partners purified

B1: binds (T. brucei histone H2A).

B2: binds (T. brucei histone H2B).
